# In patent US11692025 (UNIVERSITY COURT OF THE UNIVERSITY OF ABERDEEN, dated 2023):
# B1: E06-AAA-6xHis (VNAR)
# VNAR: TRVDQTPRTATRETGESLTINCVLTDTSYPLYSTYWYRKNPGSSNKEQISISGRYVESVNKGTKSFSLRIKDLTVADSATYICRAMGTNIWTGDGAGTVLTVNA
# notes: Shark VNAR single domain against serum albumin; also called wild-type E06; monomeric 6xHis-tagged E06
# B2: 2V-E06 (VNAR, part only; not given: naive VNAR 2V and linker, not shown: small tags and cut ends)
# chain, part: TRVDQTPRTATRETGESLTINCVLTDTSYPLYSTYWYRKNPGSSNKEQISISGRYVESVNKGTKSFSLRIKDLTVADSATYICRAMGTNIWTGDGAGTVLTVNAAAHHHHHH
# B3: 5A7-AAA-6xHis (VNAR)
# VNAR: ARVDQTPRSVTKETGESLTINCVLRDASYALGSTCWYRKKSGEGNEESISKGGRYVETVNSGSKSFSLRINDLTVEDGGTYRCGLGVAGGYCDYALCSSRYAECGDGTAVTVNA
# notes: Type I shark VNAR against hen egg lysozyme, monomeric; also called parental 5A7; anti-HEL 5A7
# B4: 5A7IVabc-AAA-6xHis (VNAR)
# VNAR: ARVDQSPSSLSASVGDRVTITCVLRDASYALGSTCWYQQKPGKAPKSISKGGRYSESVNSGSKSFTLTISSLQPEDFATYYCGLGVAGGYCDYALCSSRYAECGQGTKVEIKA
# notes: Humanized 5A7 VNAR, monomeric; also called humanized 5A7-IVabc
# Key:
# mouse serum albumin [1] = biological target: T1, mouse serum albumin (mouse, UniProt P07724 25-608); assay: BIAcore, pH 6.0, monomeric 6xHis-tagged VNAR
# T1 construct: also called MSA
# rat serum albumin [2] = biological target: T2, rat serum albumin (rat, UniProt P02770 25-608); assay: BIAcore, pH 6.0, monomeric 6xHis-tagged VNAR
# T2 construct: also called RSA
# human serum albumin [3] = biological target: T3, human serum albumin (human, UniProt P02768 25-609); assay: BIAcore, pH 6.0, monomeric 6xHis-tagged VNAR
# T3 construct: also called HSA; HAS
# mouse serum albumin [4] = biological target: T1, mouse serum albumin; assay: BIAcore, pH 7.4, monomeric 6xHis-tagged VNAR
# rat serum albumin [5] = biological target: T2, rat serum albumin; assay: BIAcore, pH 7.4, monomeric 6xHis-tagged VNAR
# human serum albumin [6] = biological target: T3, human serum albumin; assay: BIAcore, pH 7.4, monomeric 6xHis-tagged VNAR
# hen egg lysozyme [7] = biological target: T4, hen egg lysozyme (hen, UniProt P00698 19-147); assay: BIAcore
# T4 construct: also called HEL
# mouse serum albumin [8] = biological target: T1, mouse serum albumin; assay: BIAcore, mean ± SE
# rat serum albumin [9] = biological target: T2, rat serum albumin; assay: BIAcore, mean ± SE
# CSA = biological target: T5, CSA (monkey, UniProt A2V9Z4 25-608, limits assumed); assay: BIAcore, mean ± SE
# T5 construct: also called monkey albumin
# human serum albumin [10] = biological target: T3, human serum albumin; assay: BIAcore, mean ± SE
# mouse serum albumin [11] = biological target: T1, mouse serum albumin; assay: BIAcore
# human serum albumin [12] = biological target: T3, human serum albumin; assay: BIAcore
# hen egg lysozyme [13] = biological target: T4, hen egg lysozyme; assay: Biacore, monomeric VNAR
# T1 sequence (P07724 25-608 limits assumed): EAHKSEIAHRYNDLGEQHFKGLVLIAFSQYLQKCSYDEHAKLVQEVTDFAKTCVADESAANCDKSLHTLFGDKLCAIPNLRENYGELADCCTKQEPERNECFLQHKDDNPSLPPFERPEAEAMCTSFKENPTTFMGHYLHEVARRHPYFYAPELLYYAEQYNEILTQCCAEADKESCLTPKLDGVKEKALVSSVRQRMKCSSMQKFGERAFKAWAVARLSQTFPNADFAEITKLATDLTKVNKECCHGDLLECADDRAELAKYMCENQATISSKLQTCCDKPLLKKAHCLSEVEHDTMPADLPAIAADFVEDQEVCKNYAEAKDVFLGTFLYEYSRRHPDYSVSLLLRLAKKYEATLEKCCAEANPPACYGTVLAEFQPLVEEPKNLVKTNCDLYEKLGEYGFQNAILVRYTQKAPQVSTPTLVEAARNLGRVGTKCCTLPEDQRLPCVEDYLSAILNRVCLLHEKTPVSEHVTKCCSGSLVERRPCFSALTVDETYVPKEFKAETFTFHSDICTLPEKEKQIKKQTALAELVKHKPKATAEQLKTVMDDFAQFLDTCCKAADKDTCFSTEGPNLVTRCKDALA
# T4 sequence (P00698 19-147): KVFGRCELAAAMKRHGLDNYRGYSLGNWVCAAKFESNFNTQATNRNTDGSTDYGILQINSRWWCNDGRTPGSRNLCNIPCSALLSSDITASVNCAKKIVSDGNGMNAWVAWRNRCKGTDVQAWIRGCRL
# T5 sequence (A2V9Z4 25-608 limits assumed): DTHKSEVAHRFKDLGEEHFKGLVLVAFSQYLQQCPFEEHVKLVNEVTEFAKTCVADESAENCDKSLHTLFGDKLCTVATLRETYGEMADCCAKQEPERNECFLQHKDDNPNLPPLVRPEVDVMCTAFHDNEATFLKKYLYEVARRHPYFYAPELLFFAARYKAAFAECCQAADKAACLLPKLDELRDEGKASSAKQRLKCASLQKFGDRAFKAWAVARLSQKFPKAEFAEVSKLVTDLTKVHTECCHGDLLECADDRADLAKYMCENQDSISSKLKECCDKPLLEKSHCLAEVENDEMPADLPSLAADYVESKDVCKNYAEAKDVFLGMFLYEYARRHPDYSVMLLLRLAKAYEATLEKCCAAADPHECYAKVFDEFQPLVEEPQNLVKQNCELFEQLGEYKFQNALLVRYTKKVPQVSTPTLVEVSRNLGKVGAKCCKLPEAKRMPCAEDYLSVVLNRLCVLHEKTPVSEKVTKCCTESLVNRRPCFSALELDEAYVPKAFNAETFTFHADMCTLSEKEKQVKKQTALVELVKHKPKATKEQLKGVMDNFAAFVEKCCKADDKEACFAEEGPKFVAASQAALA
# T2 sequence (P02770 25-608 limits assumed): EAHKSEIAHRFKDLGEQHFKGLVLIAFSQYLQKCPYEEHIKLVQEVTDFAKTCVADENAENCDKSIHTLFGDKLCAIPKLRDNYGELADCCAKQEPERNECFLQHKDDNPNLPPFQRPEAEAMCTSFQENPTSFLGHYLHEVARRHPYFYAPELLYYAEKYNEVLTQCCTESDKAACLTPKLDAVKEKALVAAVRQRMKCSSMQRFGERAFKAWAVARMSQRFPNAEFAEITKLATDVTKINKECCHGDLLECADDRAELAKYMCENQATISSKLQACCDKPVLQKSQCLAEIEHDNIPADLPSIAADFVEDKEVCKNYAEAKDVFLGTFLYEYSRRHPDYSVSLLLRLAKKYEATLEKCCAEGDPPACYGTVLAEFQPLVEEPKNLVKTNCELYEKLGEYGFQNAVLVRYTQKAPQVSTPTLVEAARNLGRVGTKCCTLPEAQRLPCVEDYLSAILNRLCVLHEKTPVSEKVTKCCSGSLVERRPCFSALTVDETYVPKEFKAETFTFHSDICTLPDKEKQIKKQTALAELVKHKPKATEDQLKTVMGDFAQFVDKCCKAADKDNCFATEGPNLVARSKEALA
Binder,Kd (mouse serum albumin [8]) [nM],koff (mouse serum albumin [8]) [s⁻¹],kon (mouse serum albumin [8]) [M⁻¹ s⁻¹],Kd (rat serum albumin [9]) [nM],koff (rat serum albumin [9]) [s⁻¹],kon (rat serum albumin [9]) [M⁻¹ s⁻¹],Kd (CSA) [nM],koff (CSA) [s⁻¹],kon (CSA) [M⁻¹ s⁻¹],Kd (human serum albumin [10]) [nM],koff (human serum albumin [10]) [s⁻¹],kon (human serum albumin [10]) [M⁻¹ s⁻¹],other results
B1,0.74,0.00171,2.32e+06,1.34,0.00301,2.24e+06,0.219,0.000584,2.68e+06,0.189,0.000583,3.09e+06,Kd (mouse serum albumin [1]): 0.33 nM; koff (mouse serum albumin [1]): 0.00323 s⁻¹; kon (mouse serum albumin [1]): 9.85e+06 M⁻¹ s⁻¹; Kd (rat serum albumin [2]): 0.34 nM; koff (rat serum albumin [2]): 0.00433 s⁻¹; kon (rat serum albumin [2]): 1.26e+07 M⁻¹ s⁻¹; Kd (human serum albumin [3]): 0.14 nM; koff (human serum albumin [3]): 0.00159 s⁻¹; kon (human serum albumin [3]): 1.12e+07 M⁻¹ s⁻¹; Kd (mouse serum albumin [4]): 0.83 nM; koff (mouse serum albumin [4]): 0.0018 s⁻¹; kon (mouse serum albumin [4]): 2.18e+06 M⁻¹ s⁻¹; Kd (rat serum albumin [5]): 1.45 nM; koff (rat serum albumin [5]): 0.0032 s⁻¹; kon (rat serum albumin [5]): 2.21e+06 M⁻¹ s⁻¹; Kd (human serum albumin [6]): 0.19 nM; koff (human serum albumin [6]): 0.000655 s⁻¹; kon (human serum albumin [6]): 3.48e+06 M⁻¹ s⁻¹; binding result (hen egg lysozyme [7]): no binding
B2,2.49,0.00214,862000,5.95,0.00344,623000,0.91,0.000682,820000,0.721,0.000641,953000,
B3,,,,,,,,,,,,,binding result (mouse serum albumin [11]): no binding; binding result (human serum albumin [12]): no binding
B4,,,,,,,,,,,,,Kd (hen egg lysozyme [13]): 14.8 nM; koff (hen egg lysozyme [13]): 0.173 s⁻¹; kon (hen egg lysozyme [13]): 1.17e+07 M⁻¹ s⁻¹
